B1: Histidine--tRNA ligase, cytoplasmic, residues 8 to 45; numbered along this chain, P12081 (parent)
chain: EELVKLQGERVRGLKQQKASAELIEEEVAKLLKLKAQL
B2: Poly(rC)-binding protein 1, residues 278 to 350; numbered along this chain, Q15365 (parent)
chain: TQTTHELTIPNNLIGCIIGRQGANINEIRQMSGAQIKIANPVEGSSGRQVTITGSAASISLAQYLINARLSSE

Variants of: B1
Assay: abundance fitness (aPCA) (normalised: wild type 0, dead -1); higher = more abundant; growth selection in yeast, the domain comes from the species named
Details: Homo sapiens

Abundance fitness, by site and new letter:
L34: C -0.197; D 0.05; E 0.083; F -0.148; G -0.128; H -0.06; I -0.176; K -0.1; M 0.121; P 0.209; Q 0.061; R -0.151; T -0.066; V -0.064; W -0.237; Y -0.093
K35: A 0.627; C 0.383; D 0.227; E 0.193; F -0.893; G 0.78; H -0.532; I -0.335; L -0.051; M 0.277; N 0.597; P 0.394; Q 0.414; R -0.005; S 0.611; T 0.392; V 0.271; W -0.936; Y -0.518
Q37: A 0.152; C -0.057; D 0.119; E 0.28; F -0.693; G 0.191; H -0.224; I -0.29; K 0.041; L -0.164; M -0.02; N -0.04; P 0.083; R -0.143; S 0.065; T -0.113; V -0.173; Y -0.532
L38: A 0.15; D 0.003; E 0.204; F -0.526; H -0.012; I -0.389; K 0.14; M 0.193; N -0.05; P -0.026; Q 0.166; R -0.067; S 0.009; T 0.034; V -0.209; W -0.154

Variants of: B2
Assay: as above
Details: Homo sapiens

Abundance fitness, by site and new letter:
T1: A -0.086; C -0.218; D 0.167; E 0.106; G -0.02; I 0.094; K -0.191; M 0.058; N 0.194; P -0.141; Q -0.559; S 0.012; V 0.061; W -0.287; Y -0.072
Q2: A -0.177; C -0.263; D 0.052; E -0.077; G 0.031; I 0.118; K 0.101; M 0.075; P -0.128; R 0.054; T 0.142; V 0.015; W 0.017; Y 0.082
T3: A 0.048; C -0.009; D 0.053; E 0.285; G 0.167; H 0.147; I -0.345; K 0.257; L 0.079; M 0.161; N 0.113; P -0.16; Q 0.11; R 0.119; S 0.119; V 0.023; Y -0.221
T4: A -0.109; D -0.284; E -0.113; F -0.182; H -0.26; I -0.292; L -0.217; M -0.189; N -0.138; P -0.271; Q -0.087; R -0.155; S 0.008; V -0.088; W -0.31; Y 0.013
H5: A 0.139; C 0.104; D -0.323; E -0.073; F -0.32; G -0.081; I 0.113; K 0.107; M 0.136; N -0.173; P -0.699; Q 0.253; R 0.091; S 0.091; T 0.066; V 0.217; W 0.091; Y -0.083
E6: A 0.002; C 0.168; F -0.088; H 0.232; I 0.116; K 0.113; M 0.07; N 0.161; P -0.965; Q 0.156; R 0.164; S 0.08; T 0.294; V 0.135; W -0.102; Y 0.218
L7: A -0.504; C -0.208; D -0.616; E -0.331; F -0.051; G -0.517; H -0.744; I -0.013; K -0.53; M 0.113; N -0.803; P -1.03; Q -0.382; R -0.354; S -0.468; T -0.447; V -0.043; W -0.274; Y -0.436
T8: A -0.124; C 0.098; D 0.144; E 0.069; G -0.559; H 0.017; I -0.008; K -0.128; L -0.032; M 0.028; N 0.081; Q -0.076; R -0.028; S -0.074; V 0.207; W -0.064; Y 0.05
I9: A -0.688; C -0.839; D -0.714; E -0.942; F 0.066; G -0.771; H -0.039; L -0.072; M -0.356; N -0.805; P -0.835; Q -0.767; R -0.732; S -0.885; T -0.79; V 0.076; W -0.847; Y -0.567
P10: A -0.117; C -0.577; D -0.363; E -0.237; G -0.474; H -0.442; I -0.696; K -0.181; L -0.597; M -0.868; N -0.938; Q -0.538; R -0.504; S -0.274; T -0.549; V -0.707; W -0.915
N11: A -0.075; C -0.165; D 0.186; E -0.045; F -0.061; H -0.025; I -0.21; K -0.171; L -0.473; M -0.28; P -0.347; R -0.264; S -0.09; T -0.169; V -0.352; W -0.425; Y -0.549
N12: A -0.148; C -0.267; D -0.272; E -0.202; F -0.459; G -0.282; H -0.009; K -0.004; L -0.35; M -0.316; P -0.186; R 0.027; S -0.022; T -0.053; V -0.306
L13: A -0.069; C -0.21; D -0.012; E -0.06; F -0.107; G -0.477; H -0.051; I -0.076; K 0.062; M 0.05; N -0.228; P -0.959; Q 0.14; R -0.082; S -0.041; T -0.181; V -0.404; W -0.265; Y -0.07
I14: A -0.228; C -0.252; D -0.876; E -0.769; F -0.378; G -0.948; H -0.485; K -0.855; L -0.115; M -0.118; N -0.762; P -0.647; Q -0.73; R -0.573; S -0.367; T -0.17; V -0.116; W -0.689
G15: A -0.092; C -0.353; D 0.002; E -0.062; F -0.438; H -0.072; I -0.751; K -0.083; L -0.465; M 0; N 0.016; Q -0.162; R -0.136; S -0.035; T -0.03; V -0.526; W -0.14; Y -0.046
C16: A 0.059; D -0.063; E -0.038; F -0.031; G -0.116; H -0.141; I 0.266; K 0.093; L -0.107; M 0.092; P -0.045
